The values that follow come from patent publication US20100322948A1, “Bone morphogenetic protein (BMP)-binding domains of proteins of the repulsive guidance molecule (RGM) protein family and functional fragments thereof, and use of same” (ABBOTT GMBH & CO. KG, priority 2007, published 2010).

To fix the notation:
B4: Recombinant human BMP-4 (ligand, UniProt P12644 293-408, looked up)
chain: SPKHHSQRARKKNKNCRRHSLYVDFSDVGWNDWIVAPPGYQAFYCHGDCPFPLADHLNSTNHAIVQTLVNSVNSSIPKACCVPTELSAISMLYLDEYDKVVLKNYQEMVVEGCGCR
notes: Bought protein; also called hBMP-4
B6: 47-168-Fc (#786) (Fc fusion)
chain: PCKILKCNSEFWSATSGSHAPASDDTPEFCAALRSYALCTRRTARTCRGDLAYHSAVHGIEDLMSQHNCSKDGPTSQPRLRTLPPAGDSQERSDSPEICHYEKSFHKHSATPNYTHCGLFGD
notes: Expressed in HEK293F cells; IgK leader left out; also called fragment 0; not shown: Factor Xa site from the vector; human IgG Fc (hIgG lambda hc 257-Stop)

In assay [1] the target is T1, BMP-2 (Homo sapiens, UniProt P12643).
T1 construct: purchased R&D Systems 355-BM; host or cells: CHO cells (said of #355-BM in the BRE-Luc section)
T1 sequence (P12643 283-396): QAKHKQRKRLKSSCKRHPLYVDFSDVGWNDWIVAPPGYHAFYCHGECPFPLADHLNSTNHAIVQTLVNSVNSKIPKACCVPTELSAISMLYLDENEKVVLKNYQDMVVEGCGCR
Description: In vitro interaction test, variant B: immobilized RGMA-Fc fusion proteins, detection of BMP-2 binding. The following applies: Working Example 2, FIG. 4, anti-BMP-2 biotin antibodies. On the procedure: (§1) Test Method 4: In Vitro Interaction Test for Determining the Interaction between RGMA and BMP-2 and -4
(§2) The interaction tests were carried out as described below:
(§3) Variant B: Immobilization of Various RGMA-Fc Fusion Proteins and Detection of the Binding of the BMP-2/ or -4 Protein
(§4) Immunoplate Cert. MaxiSorp F96 (Nunc, 439454)
(§5) RGMA-Fc fragments • Volume used: 2.5 μg/mL in Na2CO3; addition: 50 μL per well • 1 hour at 37° C. in damp chamber
(§6) 3. Washing step: • Wash 3× with PBS/0.02% Tween 20
(§7) 4. Blocking: • 3% BSA in PBS/0.02% Tween, 1 hour at 37° C. in damp chamber • Addition : 200 μL per well, incubation: 1 hour at 37° C. in damp chamber
(§8) Recombinant human BMP-2, Catalog No.: 355-BM, Company: R&D Systems; or
(§9) Recombinant human RGM A, R&D Systems; Prod. #2495-RM,
(§10) recombinant human BMP-4, Catalog No.: 314-BM, Company: R&D Systems;
(§11) Concentration in each case: 10 μg/mL
(§12) Dilution steps: in each case 1:2 with PBS/0.02% Tween 20
(§13) 6. Washing step: • Wash 3× with PBS/0.02% Tween 20
(§14) Anti-human BMP-4 biotin antibody; Catalog No.: BAM7572, 1:200 in 1% BSA-PBS-T
(§15) 8. Washing step: • Wash 3× with PBS/0.02% Tween 20
10. Washing step: • Wash 3× with PBS/0.02% Tween 20 […]
(§16) The test was conducted according to test method 4, variant B above, with immobilization of the fusion proteins (1 mg/mL). The binding of BMP-4 and -2 was detected using anti-BMP-4 and anti-BMP-2 biotin antibodies, respectively.

The target of assay [2] is T2, BMP-4 (Homo sapiens, UniProt P12644).
T2 construct: purchased R&D Systems 314-BM
T2 sequence (P12644 293-408): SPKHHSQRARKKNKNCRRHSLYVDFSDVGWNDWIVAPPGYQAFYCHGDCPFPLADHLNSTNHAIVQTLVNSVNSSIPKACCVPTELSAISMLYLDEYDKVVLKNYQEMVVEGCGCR
As to the kind of experiment: In vitro interaction test, variant B: immobilized RGMA-Fc fusion proteins, detection of BMP-4 binding. On the procedure:
as §1, §2, §3, §4, §5, §6, §7, §8, §9, §10, §11, §12, §13, §14, §15
10. Washing step: • Wash 3× with PBS/0.02% Tween 20
ImmunoPure TMB substrate kit; (Pierce, #34021) • Development period: approximately 1-30 minutes • 1:1 mixture of […]; addition: 50 μL per well
12. Stop: • 2.5 M H2SO4; addition: 50 μL per well
The test was conducted according to test method 4, variant B above, with immobilization of the fusion proteins (1 mg/mL). The binding of BMP-4 was detected using anti-BMP-4 biotin antibodies.
as §16

Assay [3] deals with B4. As to the kind of experiment: ELISA, 266-335-Fc immobilised, BMP-4 titrated, detection with anti-BMP-4 biotin antibody. How it is done: (§17) The test was conducted according to test method 4, variant B above, with immobilization of the fusion proteins (1 mg/mL).
For orientation: ELISA stands for enzyme-linked immunosorbent assay.

Assay [4] deals with B6. Description: ELISA, 47-168-Fc immobilised, BMP-2 titrated, detection with anti-BMP-2 biotin antibody. How it is done:
as §17

For assay [5], the target named is B6. As to the kind of experiment: ELISA, 47-168-Fc immobilised, BMP-4 titrated, detection with anti-BMP-4 biotin antibody. How it is done:
as §17

For assay [6], the target named is B4. Description: ELISA, 218-284-Fc immobilised, BMP-4 titrated, detection with anti-BMP-4 biotin antibody. On the procedure:
as §17

For assay [7], the target named is B4. Description: ELISA, BMP-4 coated at 2.5 µg/mL, fragment #786-Fc from 0.5 µg/mL in 1:2 dilutions (triple values), detection anti-human Fc biotin 1:200 and Strep POD 1:5000. From the text: The binding of the fusion proteins was detected using anti-human-antibodies.

B1: RGMA-Fc: RGM A Fc fusion protein used as comparison for the fragments (protein)
chain: PCKILKCNSEFWSATSGSHAPASDDTPEFCAALRSYALCTRRTARTCRGDLAYHSAVHGIEDLMSQHNCSKDGPTSQPRLRTLPPAGDSQERSDSPEICHYEKSFHKHSATPNYTHCGLFGDPHLRTFTDRFQTCKVQGAWPLIDNNYLNVQATNTPVLPGSAATATSKLTIIFKNFQECVDQKVYQAEMDELPAAFVDGSKNGGDKHGANSLKITEKVSGQHVEIQAKYIGTTIVVRQVGRYLTFAVRMPEEVVNAVEDWDSQGLYLCLRGCPLNQQIDFQAFHTNAEGTGARRLAAASPAPTAPETFPYETAVAKCKEKLPVEDLYYQACVFDLLTTGDVNFTLAAYYALEDVKMLHSNKDKLHLYERTRDLPG
modifications: left off: a dimerising Fc or GST
notes: RGM A Fc fusion protein used as comparison for the fragments
With B1, in assay [1], the “binding of BMP-2” value is on record as “Significant binding”. Besides, the “binding of BMP-4” value in assay [2] (Working Example 1, FIG. 3, anti-BMP-4 biotin antibodies) is recorded as “Significant binding”; in assay [2] (Working Example 2, FIG. 4, anti-BMP-4 biotin antibodies), “Significant binding”.

B2: #789: 266-335 Fc 257 Stop no att (Fc fusion, human, UniProt Q96B86 266-335, looked up)
RGM A fragment fused to Fc: SGQHVEIQAKYIGTTIVVRQVGRYLTFAVRMPEEVVNAVEDWDSQGLYLCLRGCPLNQQIDFQAFHTNAE
notes: fragment; also called Fragment 3
Take B2: the binding result in assay [3] was “no binding”.

B3: Recombinant human BMP-2 (ligand, UniProt P12643 283-396, looked up)
chain: QAKHKQRKRLKSSCKRHPLYVDFSDVGWNDWIVAPPGYHAFYCHGECPFPLADHLNSTNHAIVQTLVNSVNSKIPKACCVPTELSAISMLYLDENEKVVLKNYQDMVVEGCGCR
notes: Bought protein; also called rhBMP-2; recombinant h BMP-2
B3: the binding result in assay [4] is listed as “binds”.
Take B4: in assay [5], the binding result is on record as “binds”.

B5: Fragment 2 (Fc fusion)
RGM A fragment fused to Fc: IIFKNFQECVDQKVYQAEMDELPAAFVDGSKNGGDKHGANSLKITEKVSGQHVEIQAKYIGTTIVVR
notes: also called 218-284-Fc
Turning to B5, the binding result in assay [6] was “no binding”.
In the case of B6, in assay [7], the EC50 (read off the curve) (usually the concentration giving half of the maximal effect) was approximately 5 ng/mL.
